The source of these data is paper PMC5264652 (EBioMedicine, 2016).

Values joined by “and” are separate entries in the source; they are usually repeats but may differ in a detail not shown here. Equal values may be shown once. Read-outs that look alike come from different tables or passages of the source.

B4: ClfA_(229–545) (domain or fragment)
chain: GTDITNQLTNVTVGIDSGTTVYPHQAGYVKLNYGFSVPNSAVKGDTFKITVPKELNLNGVTSTAKVPPIMAGDQVLANGVIDSDGNVIYTFTDYVNTKDDVKATLTMPAYIDPENVKKTGNVTLATGIGSTTANKTVLVDYEKYGKFYNLSIKGTIDQIDKTNNTYRQTIYVNPSGDNVIAPVLTGNLKPNTDSNALIDQQNTSIKVYKVDNAADLSESYFVNPENFEDVTNSVNITFPNPNQYKVEFNTPDDQITTPYIVVVNGHIDPNSKGDLALRSTLYGYNSNIIWRSMSWDNEVAFNNGSGSGDGIDKPVVP
B5: Human fibrinogen (complex)
chain 1: ADSGEGDFLAEGGGVRGPRVVERHQSACKDSDWPFCSDEDWNYKCPSGCRMKGLIDEVNQDFTNRINKLKNSLFEYQKNNKDSHSLTTNIMEILRGDFSSANNRDNTYNRVSEDLRSRIEVLKRKVIEKVQHIQLLQKNVRAQLVDMKRLEVDIDIKIRSCRGSCSRALAREVDLKDYEDQQKQLEQVIAKDLLPSRDRQHLPLIKMKPVPDLVPGNFKSQLQKVPPEWKALTDMPQMRMELERPGGNEITRGGSTSYGTGSETESPRNPSSAGSWNSGSSGPGSTGNRNPGSSGTGGTATWKPGSSGPGSTGSWNSGSSGTGSTGNQNPGSPRPGSTGTWNPGSSERGSAGHWTSESSVSGSTGQWHSESGSFRPDSPGSGNARPNNPDWGTFEEVSGNVSPGTRREYHTEKLVTSKGDKELRTGKEKVTSGSTTTTRRSCSKTVTKTVIGPDGHKEVTKEVVTSEDGSDCPEAMDLGTLSGIGTLDGFRHRHPDEAAFFDTASTGKTFPGFFSPMLGEFVSETESRGSESGIFTNTKESSSHHPGIAEFPSRGKSSSYSKQFTSSTSYNRGDSTFESKSYKMADEAGSEADHEGTHSTKRGHAKSRPVRGIHTSPLGKPSLSP
chain 2: QGVNDNEEGFFSARGHRPLDKKREEAPSLRPAPPPISGGGYRARPAKAAATQKKVERKAPDAGGCLHADPDLGVLCPTGCQLQEALLQQERPIRNSVDELNNNVEAVSQTSSSSFQYMYLLKDLWQKRQKQVKDNENVVNEYSSELEKHQLYIDETVNSNIPTNLRVLRSILENLRSKIQKLESDVSAQMEYCRTPCTVSCNIPVVSGKECEEIIRKGGETSEMYLIQPDSSVKPYRVYCDMNTENGGWTVIQNRQDGSVDFGRKWDPYKQGFGNVATNTDGKNYCGLPGEYWLGNDKISQLTRMGPTELLIEMEDWKGDKVKAHYGGFTVQNEANKYQISVNKYRGTAGNALMDGASQLMGENRTMTIHNGMFFSTYDRDNDGWLTSDPRKQCSKEDGGGWWYNRCHAANPNGRYYWGGQYTWDMAKHGTDDGVVWMNWKGSWYSMRKMSMKIRPFFPQQ
chain 3: YVATRDNCCILDERFGSYCPTTCGIADFLSTYQTKVDKDLQSLEDILHQVENKTSEVKQLIKAIQLTYNPDESSKPNMIDAATLKSRKMLEEIMKYEASILTHDSSIRYLQEIYNSNNQKIVNLKEKVAQLEAQCQEPCKDTVQIHDITGKDCQDIANKGAKQSGLYFIKPLKANQQFLVYCEIDGSGNGWTVFQKRLDGSVDFKKNWIQYKEGFGHLSPTGTTEFWLGNEKIHLISTQSAIPYALRVELEDWNGRTSTADYAMFKVGPEADKYRLTYAYFAGGDAGDAFDGFDFGDDPSDKFFTSHNGMQFSTWDNDNDKFEGNCAEQDGSGWWMNKCHAGHLNGVYYQGGTYSKASTPNGYDNGIIWATWKTRWYSMKKTTMKIIPFNRLTIGEGQQHHLGGAKQAGDV

Experiment in all cases: SPR
One assay addresses GST-tagged Fg γ peptide.
The target of assay [1] is B5.
For assay [2], the target named is T1, Fibrinogen D-fragment (UniProt P02671;P02675;P02679-2).
T1 sequence 1: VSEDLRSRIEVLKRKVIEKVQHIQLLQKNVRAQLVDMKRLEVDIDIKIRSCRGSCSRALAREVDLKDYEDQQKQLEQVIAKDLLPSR
T1 sequence 2: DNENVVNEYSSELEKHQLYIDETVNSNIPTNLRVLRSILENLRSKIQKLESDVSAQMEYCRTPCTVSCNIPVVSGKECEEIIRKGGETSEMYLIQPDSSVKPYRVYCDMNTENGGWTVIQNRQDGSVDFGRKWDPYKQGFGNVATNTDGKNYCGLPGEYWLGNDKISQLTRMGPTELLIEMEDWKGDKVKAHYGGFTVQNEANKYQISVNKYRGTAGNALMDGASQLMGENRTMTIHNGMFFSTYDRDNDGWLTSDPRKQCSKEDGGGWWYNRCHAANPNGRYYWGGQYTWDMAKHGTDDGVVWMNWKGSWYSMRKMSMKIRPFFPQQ
T1 sequence 3: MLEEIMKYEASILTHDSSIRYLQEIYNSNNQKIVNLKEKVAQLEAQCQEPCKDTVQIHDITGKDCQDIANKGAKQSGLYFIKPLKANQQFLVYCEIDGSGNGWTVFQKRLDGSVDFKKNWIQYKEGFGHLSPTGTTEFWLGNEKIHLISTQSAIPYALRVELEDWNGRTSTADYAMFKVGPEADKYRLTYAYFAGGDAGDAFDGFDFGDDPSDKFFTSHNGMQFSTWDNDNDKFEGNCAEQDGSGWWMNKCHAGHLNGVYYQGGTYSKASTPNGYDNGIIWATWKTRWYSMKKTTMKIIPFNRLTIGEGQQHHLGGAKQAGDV

For assay [3], the target named is ClfA_(229–545) (S. aureus strain Newman, UniProt Q53653).
Assay [4] deals with B5. This is another data set of the same source.
Assay [5] deals with T1, Fibrinogen D-fragment. The source holds these as a separate data set.
Assay [6] addresses B4.

Molecule “ClfA_(229–545) (from UniProt Q53653 229-545) (domain or fragment)” showed a fold difference in KD against Fg or Fg D-fragment with GST-tagged Fg γ peptide of 50 fold.
“ClfA N3 (ClfA_(370–559)) (from UniProt Q53653 370-559) (domain or fragment)”: in the assay with GST-tagged Fg γ peptide, the fold lower affinity against intact Fg or Fg D-fragment was found to be 10 fold.

B1: ClfA N3 (ClfA_(370–559)) (domain or fragment)
chain: EKYGKFYNLSIKGTIDQIDKTNNTYRQTIYVNPSGDNVIAPVLTGNLKPNTDSNALIDQQNTSIKVYKVDNAADLSESYFVNPENFEDVTNSVNITFPNPNQYKVEFNTPDDQITTPYIVVVNGHIDPNSKGDLALRSTLYGYNSNIIWRSMSWDNEVAFNNGSGSGDGIDKPVVPEQPDEPGEIEPIPE
For B1, the “fold of KD against ClfA229-545 on the same protein” value with Human fibrinogen [1] and with Fibrinogen D-fragment [2] was around 10 fold in each case.

B2: tefibazumab (antibody, V domains shown)
VH: QVQLKESGPGLVKPSQTLSITCTISGFSLSRYSVHWVRQPPGKGLEWLGMIWGGGNTDYNSALKSRLSISKDNSKNQVFLKMNSLTAADTAVYYCARKGEFYYGYDGFVYWGQGTLVTVSS
VL: DIVMTQSPDSLAVSLGERVTMNCKSSQSVLYSSNQKNYLAWYQQKPGQSPKLLIYWASTRESGVPDRFSGSGSGTDFTLTISSVQAEDLAVYYCHQYLSSYTFGGGTKLEIK
Regarding B2, in the assay with ClfA_(229–545) [3], the IC50 was 330 nM and 390 nM; the Kd was 0.79 nM and 0.81 nM and 0.7 nM; the koff amounted to 0.00049 s⁻¹; the kon was determined as 594000 M⁻¹ s⁻¹.

B3: ClfAPWY (domain or fragment)
chain: VAADAPAAGTDITNQLTNVTVGIDSGTTVYPHQAGYVKLNYGFSVPNSAVKGDTFKITVPKELNLNGVTSTAKVPPIMAGDQVLANGVIDSDGNVIYTFTDYVNTKDDVKATLTMPAYIDPENVKKTGNVTLATGIGSTTANKTVLVDYEKYGKFYNLSIKGTIDQIDKTNNTYRQTIYVNPSGDNVIAPVLTGNLKPNTDSNALIDQQNTSIKVYKVDNAADLSESYFVNPENFEDVTNSVNITFANPNQYKVEFNTPDDQITTPYIVVVNGHIDPNSKGDLALRSTLYGANSNIIARSMSWDNEVAFNNGSGSGDGIDKPVVPEQPDEPGEIEPIPE
With B3, the Kd in the assay with Human fibrinogen [4] amounted to 10000 nM; with Fibrinogen D-fragment [5], 17000 nM.
For the molecule B4, the Kd with Human fibrinogen [1] is 610 nM and 660 nM.
B5: in the assay with ClfA_(229–545) [6], the IC50 was 430 nM and 480 nM.
